Reference: a protein production outcome set (Wang et al. 2014)

Experiment: label from the status in PepcDB records

| Sequence | protein production |
| --- | --- |
| MKIWTSEHVFDHPWETVTTAAMQKYPNPMNPSVVGVDVLDRHIDPSGKLHSHRLLSTEWGLPSIVKSLIGAARTKTYVQEHSVVDPVEKTMELKSTNISFTNMVSVDERLIYKPHPQDPEKTVLTQEAIITVKGVSLSSYLEGLMASTISSNASKGREAMEWVIHKLNAEIEELTASARGTIRTPMAAAAFAEK | failed |
| MLGGNNDNPVPQVLMNDSQFRYQSNTSLNQLHLLGTMRAGCTIDPVNYFANDNLAPMMRLNSTRGRETENNNIMQRQQKLQISLNYNYNNNNTVVQDEVPKQNLVSTGLRLSYDDDERNSSVTSANGSITTPVYQSLGDNIRLDLNRQNDELDQFIKFRADQMAKGVRDIKQRHVTSFVTALEKDVSKKLQEKDHEIESMNKKNRELVDKIKQVAVEAQNWHYKAKYNESVVNALKVNLQQVMSHGNDNNAVGGGVADHHQMKEGFGDSEIDDEAASYNYLNIPGMPSTGMRCKLCNVKNVSVLLVPCRHLSLCKDCDVFTGVCPVCQSLKTSSVQVFFF | failed |
| MNRYQALFQRLSAAQQGAFVPFVTIGDPNPEQSLAIMQTLIDAGADALELGMPFSDPLADGPTIQGANLRALAAKTTPDICFELIAQIRARNPETPIGLLMYANLVYARGIDDFYQRCQKAGVDSVLIADVPTNESQPFVAAAEKFGIQPIFIAPPTASDETLRAVAQLGKGYTYLLSRAGVTGAETKANMPVHALLERLQQFDAPPALLGFGISEPAQVKQAIEAGAAGAISGSAVVKIIETHLDNPAKQLTELANFTQAMKKATKI | not failed |
| MEKSKIINYWDKRAESFSKNKLAELESTHAQKWIEEINNINPIQPGMKILDIGTGAGFLAILCGNLGSDVTGIDLSPEMIQSAKQNAESHHQDIHFQVMDAESLQFNDETFDMVISRNVTWLLPNTKAAYQEWLRVLKPNGKLINIDANYGNDSFTDYKSLNTEHAHHTLGKDMLAESEAIKQNIPINHQPRPQTDMDILKSLGFDHIHLDTEIYLRMYSEQDEFYNPTPIFLISVTKSY | failed |
| MTLPSTPMPPAGSRKILLDDFQHVGSESHLGQCVNRSWTRHNCGHLENASIICTSEGMALSPHLDGNRQPSNLDNLREKAFLYQRHQHLLKFHHQLPAAGACMEVRLLNGTGRCLGRVEVLIQGTWGTVCDHFWNLAEAAVVCRQLQCGQAMAAHFGASSGKVLLDDMQCVGSKSHLGRCVHRGWARHNCGHLEDASVICAGEGLVVNLHLEGCF | failed |
| SLDTEKDCIKAVAAKDGITVIKVKSSNKLLSWHFMRKLFEIFEFYQEPVDMVATSEVGVSLTIDNDKNLPDIVRALSDIGDVTVDKDMVIICIVGDMEWDNVGFEARIINALKGVPVRMISYGGSNYNVSVLVKAEDKKKALIALSNKLFNSRATKA | not failed |
| MDTAASPLTYRDATDADVDALVALIESAYRGDASRAGWTTEADILQGQRTDPQGVLEVVKAPDSRLLTVERDGRIVACCQLEHRGAHAYFGMFAVSPALQGAGLGKAIIAEAERQARTTWGVTEMHMTVISVRDDLIAWYERRGYRRTGETTPFPYGDERFGIPQRADLRFELLVKPLV | failed |
| LPKPGVYYFPWEVSDGHVPEGSTLRTFGRLYLYDMARSLMTLAAPQKPDQCQLLVCTNLVEPFEAHVNFLYMVLGDLERMEGGAFVVRARLLTCVEGMDLSLLEKAILEQRRHLQKRQQPIGDASTLQTPTPAPQSIPSDSLSLEPENRG | failed |
| MSPMAPVARAKRKFILLLIKPSHYDDDGYVLRWWRGIIPSNSLATLYGIAADVAARQVLGADVEFEIEAMDEFNTRIDIPALLDRFARNGNFGLVGLVGVQSNQYPRALDIARPFRASGVPVVMGGFHVSGCLAMLDGKAIGLDDCRDMGVAMFAGEAEGGRFDGVLQDAAAGQLQPVYNFLNDLPGIEGVPAPYLPLATVKRTLGLSTSVDAGRGCPYQCSFCTIINVQGRKSRYRTPDDIEAMVRRNWAQGISKYFITDDNFARNKDWEAILDRLIQIRETEDIPLGFMIQVDTLCHKIPRFIEKAKRAGVTRVFIGLENINPANLLTANKRQNKITEYRAMLLAWKDHGIITLAGYILGFPADTPASIRADIDIIKRELPIDVMEFFCLTPLPGSEDHQTLWRAGVAMDPDLNNYDVEHVCTAHPLMSRPEWEAIYREAWSRYYTPDHIETLLRRAAATGIKISSLVKLLAIFSTAIRVENVHPLQCGLFRQRHPSERRPGLAAPNALLFWPRFALDSVRKTGVILAAFAKVAAIGVRVARDPQRLAYTDQALTPVSDDDADSLDLFTQSASAKQAVAHQKKVFDLTHGTP | failed |
| MIVLGHRGYSAKYLENTLEAFMKAIEAGANGVELDVRLSKDGKVVVSHDEDLKRLFGLDVKIRDATVSELKELTDGKITTLKEVFENVSDDKIINIEIKEREAADAVLEISKKRKNLIFSSFDLDLLDEKFKGTKYGYLIDEENYGSIENFVERVEKERPYSLHVPYQAFELEYAVEVLRSFRKKGIVIFVWTLNDPEIYRKIRREIDGVITDEVELFVKLR | not failed |
| MSLIPLRQNIASMKGYIPGYQPPDIASWIKLNTNENPYPPSPEVVKAILEELGPDGAALRIYPSASSQKLREVAGELYGFDPSWIIMANGSDEVLNNLIRAFAAEGEEIGYVHPSYSYYGTLAEVQGARVRTFGLTGDFRIAGFPERYEGKVFFLTTPNAPLGPSFPLEYIDELARRCAGMLVLDETYAEFAESNALELVRRHENVVVTRTLSKSYSLAGMRIGLAIARPEVIAALDKIRDHYNLDRLAQAACVAALRDQAYLSECCRRIRETREWFTTELRSIGYDVIPSQGNYLFATPPDRDGKRVYDGLYARKVLVRHFSDPLLAHGMRISIGTREEMEQTLAALKEIGEGHHHHHH | not failed |
| MAKQIIVTDSTSDLSHEYLKQHNIHVIPLSLTIDGKSYTDQVDISSSEYIDHIENDADVKTSQPPIGRFIETYEQLAQDDVEIISIHLSSGLSGTYNTAVQASHMVDGNITVIDSKSISFGLGYQIKQIVELISQGTSTEEIVKEMTQLRDNLQLFVVIGQLNQLIKGGRISKTKGLIGNIMKIKPIGTLRDGKLELVHNSRTQNSSVQYLKKEITDFVKDHKIKSIGIAHANVKDFVDKIIKSFTESFDFSQFDINVTTPVISTHTGQGAIGLVVLRDTLN | failed |
| MEPGLDGGYLLLGVDWAINDKGDTVYRPVGLPDPDKVQRDLASQCASMLNVALRPEMQLEQVGGKTLLVVYVPEADVTHKPIYKKATGLPGGAYRRIGSSDQRCVLEHHHHHH | failed |
| PEDSARVWQAFSRTLQTGEHVEIDYRYLDPGADDWIHLHVAWRGVRGSSPDTYDVIGITQNVTELVAARDAALAAAETKSQFLANMSHEIRTPMNGVLGVLHLLKTEK | failed |
| MSNQFIQYLNRAASGSIPGFVIMKLLMLELPNLMGLLLPLGFYVALLLAYGRLYAESEMTVLRACGYGPRQLLKHSFAMATVVLVVVAIVMIWASPVIAVERIKLIRSTGIKTLIQTIMPGRFHAINSGQQIFYVQSMNRDHSQAEQIFMAKHSVQDNRLLWDVLWADKAFAEVNPQTGEEYIVLQNGKEYQGVPGHADYQIAEFASYKSKLPNPTVVMHDDARTAKTRDLWPLNNHDLKKAAELQWRISIPLMVLTLTLVAVPLSRVSPRSGKYSKLLPAIIIYIFYANFMFVSRDAIATGKIPWWIGMWWVHVAVAILGILFIWRNQVKLA | failed |
| MSIENLSSNKSFGGWHKQYSHVSNTLNCAMRFAIYLPPQASTGAKVPVLYWLSGLTCSDENFMQKAGAQRLAAELGIAIVAPDTSPRGEGVADDEGYDLGQGAGFYVNATQAPWNRHYQMYDYVVNELPELIESMFPVSDKRAIAGHSMGGHGALTIALRNPERYQSVSAFSPINNPVNCPWGQKAFTAYLGKDTDTWREYDASLLMRAAKQYVPALVDQGEADNFLAEQLKPEVLEAAASSNNYPLELRSHEGYDHSYYFIASFIEDHLRFHSNYLNA | not failed |
| MEYLGPVLWSPAGKPPTWWDSLPTDRPIVYATLGTSGGRNLLQLVLNALAELPVTVIAATAGRSDLKTVPANAFVADYLPGEAAAARSAVVVCNGGSLTTQQALVAGVPVIGVAGNLDQHLNMEAVERAGAGVLLRTERLKSQRVAGAVMQVISRSEYRQAAARLADAFGRLEHHHHHH | failed |
| RIVSTLNERLAGLTLHEIRDTYEERLDDLPDETGLIALVLDEASILFSEPDEGRLQFDGTQNILSQPEFQEPDDMRHLIETIEDEDRIVQVIENLFEANPDAVGQAVVRIGSETDQEEMDAYSIVLSPYQLGDTVGSLGVIGPKRMDYGRAVALVENMAAVVNRPADDETTD | failed |
| MYLRSYMGWRFWALFFCLCSPSSVSAERLASSYLKVTEEAASSRQLIRYCVDPDWLPYEAIREGEHVGISSDYIRYIESHSNFKFSLVPTTSWSETLNFLQTGRCELTPMLNKTATREQFLHFSHVYFHSPNVLVSLKEQPFLQGFENIGSRTLAVPKGYRLAEYIQHYYPKVKIIEVGSEPAGLEAVLDKRADLFVGSMFSVNAYIQQTGFNHLKIAGWGGPEDELRMGVSLGHEALLPILNQVLDDVDELERIRIYQKWNNITVIDETNYLLIYQVIVGTLLVVFLLATRTFFISRYNRRLTDKNEQLEALRLRLEHTNAELEFLSTHDPLTKLYNRHYFNRQFVHEHRSEISSEGAICLVMLDIDFFKEINDTLGHAVGDNILMELSGVLQHCVRETDVVARWGGEEFVILCHQTSIDLVKTLCQRIAAAIKDYRFSGNVQLTCSFGIAKLVNNEPMQSCFERADKALYQAKALGRNQICVDEFNT | failed |
| MANFEDFLTLDLRIGTVTHAEEFKEARVPAIKLEIDFGELGMKQSSAQITKRYNPEDLIGQQIVAVVNFPPKRVAGFKSEVLVLGGVPEAGDVVLLQPNMELPNGTKIS | not failed |
| LLTRQLEKSRQQQQLMVAIALIIRQSLKLEDILSVTVAEVRQFLQADRVLIYQFQPDMSGIVVAESILPGWIATKGAQIEDKCFQDSAGHNHQLKKRAINDIYQAGLTNCYLELLEQFQVKATLIVPIMVTNKSWGLLIAHQCAAPHHWQSFELDLLEQLAVQIAIAIQQASAYEQIQTELQERKRVEATLRESEQRFRQMADTAPVLIWMSGL | failed |
| MKKLILYTLILLLMSCRSTQEVDTSVYMDAKQPVDKRVEALLAQMTLEEKVGQMDMVTVWDKEAIFKNGYYDFGAWLADLEPEECNQLQKLSEQTRLKIPYLIGMDAAHGYAMLTGRTIFPTSISMAATFNRELIYRTTSKAGEEIRSSGIHWAFAPCIDIVQDARWGRTGETYGEDPFLTSELVKEAIRGYQGNENPFKKVAVSVKHLVGGGASVGGCNHASAELSERALRSYFLPPFKAAIEAGCMTIMPGHNDIAGVPVHASKWLLTDIIKQEYGFKGFFISDMGDVENLATSLHQIAENQKEAVCKSVNAGLDMHMYSADSARFVSPLVELVREKKVSSRRIDDAVRRILKIKFELGLFEKRYVSPEEDSYGSKENKALALEAAREAIVLLKNDRQILPLDRTKYKKILVTGPNADNQSILGDWSIFQPDDHVTTILEGIQAAASPEQSILYSNSGRIKAKKSDLSVNTTDPAIQKKLITEGGGISDYSIDDAVRKARQSDLAIVAIGGYGIRSEWGLRTYGESADRPSIDFYGRQLELVQAIHATGTPVVIVIVNGKPLNNEWITKNIPTIVDVWEPGMYGGQALAEILFGEVNPSGKLPITIPKHAGQIPMYYYQRPSRYWTGYGLGSSREDEKPAFCFGHGLSYTSYEYSGLKIDSVIPQTQDIEFTFTVKNTGNMAGKETALVFIRDCVSSVVTPVACLKGFEKVSLNPGESKDIRIVIPYSDLGLWNEDMKYVVESGKFNLMIGRSVEDIRIKKDFFIK | failed |
